Assay results from US20100137214.

T1: GSTcle3HV3
T1 chain: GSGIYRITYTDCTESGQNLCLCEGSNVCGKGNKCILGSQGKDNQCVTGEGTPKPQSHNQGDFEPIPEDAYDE


Key:
AGPCHV3 = AGPCHV3 (UniProt P02763)
[1] = tested on: C-terminally His-tagged hirudin variant 3 (HV3)
HSACHV3 [2] = tested on: HSACHV3
GSTcle3HV3 = biological target: T1, GSTcle3HV3
HSACHV3 [3] = biological target: HSACHV3; remark: listed apart in the source

Chain of AGPCHV3, P02763 (P02763 whole entry, looked up): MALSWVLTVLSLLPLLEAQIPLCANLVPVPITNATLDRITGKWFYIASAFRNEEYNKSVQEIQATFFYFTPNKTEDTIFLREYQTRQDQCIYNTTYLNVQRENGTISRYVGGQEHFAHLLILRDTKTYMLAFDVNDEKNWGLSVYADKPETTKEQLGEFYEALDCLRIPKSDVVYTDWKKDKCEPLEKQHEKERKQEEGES
Chain of C-terminally His-tagged hirudin variant 3 (HV3) (chain, as listed by the source mutant): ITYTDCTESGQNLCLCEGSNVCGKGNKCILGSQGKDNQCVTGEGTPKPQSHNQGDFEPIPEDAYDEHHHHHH

| Molecule | rate of thrombin cleavage of a chromogenic substrate, fusion protein 376 nM without plasmin (AGPCHV3) | rate of thrombin-mediated chromogenic substrate cleavage, end value after 1500 nM HSACHV3 was combined with 600 nM plasmin (HV3 released) [1] | rate of thrombin cleavage of a chromogenic substrate, fusion protein 376 nM without plasmin (HSACHV3 [2]) | rate of thrombin-mediated chromogenic substrate cleavage, starting value for 1500 nM HSACHV3 (HSACHV3 [2]) | % thrombin activity (chromogenic substrate) after reaction of HSAHV3 with plasmin (HSAHV3) | time- and plasmin-dependent cleavage, Coomassie-stained SDS gel (4000 nM AGPCHV3, 600 nM plasmin) (AGPCHV3, P02763) | cleavage pattern by SDS-PAGE after plasmin digestion (GSTcle3HV3) | cleavage by plasmin, SDS-PAGE and autoradiography (HSACHV3 [3]) | time- and plasmin-dependent cleavage, Coomassie-stained SDS gel (1500 nM HSACHV3, 600 nM plasmin) (HSACHV3 [3]) |
| --- | --- | --- | --- | --- | --- | --- | --- | --- | --- |
| human α-thrombin | In the absence of plasmin, neither fusion protein had substantial effects upon the thrombin activity | The former reduced the rate of thrombin-mediated chromogenic substrate cleavage from 89.9% to 5.5% | In the absence of plasmin, neither fusion protein had substantial effects upon the thrombin activity | The former reduced the rate of thrombin-mediated chromogenic substrate cleavage from 89.9% to 5.5% | thrombin inhibition was unaffected by the presence of HSAHV3 following reaction with plasmin | – | – | – | – |
| plasmin (protein) KVYLSECKTGNGKNYRGTMSKTKNGITCQKWSSTSPHRPRFSPATHPSEGLEENYCRNPDNDPQGPWCYTTDPEKRYDYCDILECEEECMHCSGENYDGKISKTMSGLECQAWDSQSPHAHGYIPSKFPNKNLKKNYCRNPDRELRPWCFTTDPNKRWELCDIPRCTTPPPSSGPTYQCLKGTGENYRGNVAVTVSGHTCQHWSAQTPHTHNRTPENFPCKNLDENYCRNPDGKRAPWCHTTNSQVRWEYCKIPSCDSSPVSTEQLAPTAPPELTPVVQDCYHGDGQSYRGTSSTTTTGKKCQSWSSMTPHRHQKTPENYPNAGLTMNYCRNPDADKGPWCFTTDPSVRWEYCNLKKCSGTEASVVAPPPVVLLPDVETPSEEDCMFGNGKGYRGKRATTVTGTPCQDWAAQEPHRHSIFTPETNPRAGLEKNYCRNPDGDVGGPWCYTTNPRKLYDYCDVPQCAAPSFDCGKPQVEPKKCPGRVVGGCVAHPHSWPWQVSLRTRFGMHFCGGTLISPEWVLTAAHCLEKSPRPSSYKVILGAHQEVNLEPHVQEIEVSRLFLEPTRKDIALLKLSSPAVITDKVIPACLPSPNYVVADRTECFITGWGETQGTFGAGLLKEAQLPVIENKVCNRYEFLNGRVQSTELCAGHLAGGTDSCQGDSGGPLVCFEKDKYILQGVTSWGLGCARPNKPGVYVRVSRFVTWIEGVMRNN | – | – | – | – | – | A time- and plasmin-dependent cleavage pattern of both proteins is shown, yielding a single product for HSACHV3 and two products for AGPCHV3 | plasmin-dependent polypeptide species were detected, one of which co-migrated with unfused GST, and the other, which migrated slightly more rapidly than Pichia pastoris-derived recombinant hexahisitidinylated HV3 | HSACHV3 was cleaved by plasmin over time, reaching near complete conversion | A time- and plasmin-dependent cleavage pattern of both proteins is shown, yielding a single product for HSACHV3 and two products for AGPCHV3 |
